Patent US20190119366A1 (ADC THERAPEUTICS, published 2019)
Positions count from the first letter of the chain named.

How the values were obtained:
[1] = biological target: T1, recombinant human KAAG1 (Kidney associated antigen 1) (human, UniProt Q9UBP8 1-84); assay: SPR (BioRad ProteOn XPR36): antibody captured on an anti-human IgG Fc surface, KAAG1 injected as analyte, 1:1 Langmuir fit
T1 construct: also called KAAG1 protein
T1 sequence: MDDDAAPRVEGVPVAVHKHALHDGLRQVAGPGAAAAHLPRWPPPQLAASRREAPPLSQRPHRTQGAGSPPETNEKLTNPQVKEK
Protocol: (§1) Immediately after the activation, a 13 μg/mL solution of anti-human IgG Fc fragment specific in 10 mM NaOAc pH 4.5 was injected in the analyte direction at a flow rate of 25 μL/min until approximately 8000 resonance units (RUs) were immobilized. Remaining active groups were quenched by a 300 s injection of 1M ethanolamine at 30 μL/min in the analyte direction, and this also ensures mock-activated interspots are created for blank referencing. The screening of the 3A4 variants for binding to KAAG1 occurred in two steps: an indirect capture of 3A4 variants from cell supernatant onto the anti-human IgG Fc fragment specific surface in the ligand direction(vertical) followed by a KAAG1 injection in the analyte direction. Firstly, one buffer injection for 30 s at 100 uL/min in the ligand direction was used to stabilize the baseline. […] Four to five 3A4 variants along with wild-type 3A4 were simultaneously injected in individual ligand channels for 240 s at flow 25 μL/min. […] The first ligand channel was left empty to use as a blank control if required. This 3A4 capture step was immediately followed by two buffer injections in the analyte direction to stabilize the baseline, and then the gel filtration purified KAAG1 was injected. For a typical screen, five KAAG1 concentrations (8, 2.66, 0.89, 0.29, and 0.098 nM) and buffer control were simultaneously injected in individual analyte channels at 50 μL/min for 120 s with a 600s dissociation phase, resulting in a set of binding sensorgrams with a buffer reference for each of the captured 3A4 variants. The anti-human IgG Fc fragment specific—3A4 complexes were regenerated by a 18 s pulse of 0.85% phosphoric acid for 18 s at 100 μL/min to prepare the anti-human IgG Fc fragment specific surface for the next injection cycle. Sensorgrams were aligned and double-referenced using the buffer blank injection and interspots, and the resulting sensorgrams were analyzed using ProteOn Manager software v3.0.

[2] = biological target: T1, recombinant human KAAG1 (Kidney …); assay: SPR (ProteOn XPR36), antibody captured on anti-human IgG Fc, KAAG1 as analyte
Protocol: as §1

[3] = biological target: T1, recombinant human KAAG1 (Kidney …); assay: SPR (BioRad ProteOn XPR36); fold difference of KD relative to LcHc
Protocol: as §1

[4] = biological target: T2, KAAG1 on the surface of cancer cells (human, UniProt Q9UBP8 1-84); assay: flow cytometry, MDA-231 cells
T2 construct: Endogenous KAAG1 of human cancer cell lines and of tumor tissue sections; also called KAAG1 antigen
T2 sequence: T1 sequence

[5] = biological target: T1, recombinant human KAAG1 (Kidney …); assay: epitope mapping studies (method not described)

B1: humanized 3A4 antibody Lh1Hh1 (antibody, human IgG1, kappa, V domains shown)
VH: QVQLVQSGAEVKKPGASVKVSCKASGYTFTDDYMSWVRQAPGQGLEWMGDINPYNGDTNYNQKFKGRVTITADTSTSTAYMELSSLRSEDTAVYYCARDPGAMDYWGQGTLVTVSS
VL: DIVMTQTPLSLPVTPGEPASISCRSSQSLLHSNGNTYLEWYLQKPGQSPQLLIYTVSNRFSGVPDRFSGSGSGTDFTLKISRVEAEDVGVYYCFQGSHVPLTFGQGTKLEIKR
notes: Human IgG1/kappa; 100% humanized frameworks; also called H1 L1; H1L1
Kd [1]: 0.474 nM
koff [1]: 0.00328 s⁻¹
kon [1]: 6.93e+06 M⁻¹ s⁻¹
Kd [2]: 0.47 nM
fold difference in binding affinity between the worse variant (H1 L1) and the best variant (H4L2) [2]: 4 fold
Fold diff. [3]: 29.6

B2: humanized 3A4 antibody Lh2Hh2 (antibody, human IgG1, kappa, V domains shown)
VH: B1 VH with V2I, T74K
VL: B1 VL with I2V, Q50K
notes: Human IgG1/kappa
Kd [1]: 0.245 nM
koff [1]: 0.00181 s⁻¹
kon [1]: 7.4e+06 M⁻¹ s⁻¹
Fold diff. [3]: 15.3

B3: humanized 3A4 antibody Lh2Hh3 (antibody, human IgG1, kappa, V domains shown)
VH: B1 VH with V2I, M48I, V68A, I70L, A72V, T74K
VL: B1 VL with I2V, Q50K
notes: Human IgG1/kappa
Kd [1]: 0.228 nM
koff [1]: 0.00102 s⁻¹
kon [1]: 4.46e+06 M⁻¹ s⁻¹
Fold diff. [3]: 14.3

B4: humanized 3A4 antibody Lh2Hh4 (antibody, human IgG1, kappa, V domains shown)
VH: B1 VH with V2I, R38K, M48I, R67K, V68A, I70L, A72V, T74K
VL: B1 VL with I2V, Q50K
notes: Human IgG1/kappa; 10 mouse framework residues retained; also called H4L2
Kd [1]: 0.103 nM
koff [1]: 0.00047 s⁻¹
kon [1]: 4.57e+06 M⁻¹ s⁻¹
Kd [2]: 0.1 nM
fold weaker affinity than the murine (LcHc) [2]: ~6 fold
Fold diff. [3]: 6.4

B5: 3A4-ADC1 (chimeric 3A4 conjugated to a cytotoxic drug via a cleavable peptide linker) (antibody, human IgG1, kappa, V domains shown)
VH: QIQLVQSGPEMVKPGASVKMSCKASGYTFTDDYMSWVKQSHGKSLEWIGDINPYNGDTNYNQKFKGKAILTVDKSSSTAYMQLNSLTSEDSAVYYCARDPGAMDYWGQGTSVTVSS
VL: DVVMTQTPLSLAVSLGDQASISCRSSQSLLHSNGNTYLEWYLQKPGQSPKLLIHTVSNRFSGVPDRFSGSGSGTDFTLKISRVEAEDLGVYYCFQGSHVPLTFGAGTRLELKR
modifications: cytotoxic drug conjugated via a highly stable peptide linker that is selectively cleaved by lysosomal enzymes; chain and residues of attachment not stated
binding result [4]: binds

B6: 3A4-ADC2 (chimeric 3A4 conjugated to an anti-mitotic drug via a non-cleavable linker) (antibody, human IgG1, kappa, V domains shown)
VH: B5 VH
VL: B5 VL
modifications: anti-mitotic drug conjugated via a non-cleavable linker; chain and residues of attachment not stated
binding result [4]: binds

B7: 3G10 anti-KAAG1 antibody (antibody, V domains shown)
VH: EIQLQQSGPELVKPGASVKISCKASGYTFTDNYMNWVKQSHGKSLEWIGDINPYYGTTTYNQKFKGKATLTVDKSSRTAYMELRGLTSEDSAVYYCARDDWFDYWGQGTLVTVSA
VL: DVLMTQTPRSLSVSLGDQASISCRSSQSLLHSNGNTYLEWYLQKPGQPPKVLIYKVSNRFSGVPDRFSGSGSGTDFTLKISGVEAEDLGVYYCFQGSHVPLTFGAGTKLELK
binding result [5]: binds
